Test results: patent US20170100490A1, “Prodrug Comprising a Drug Linker Conjugate” (Ascendis Pharma A/S, priority 2008, published 2017)

Legend:
physchem = details: buffer A (phosphate buffer), pH 7.4
Method: In vitro linker hydrolysis and release of drug: Compounds were dissolved in buffer A (10 mM sodium phosphate, 140 mM NaCl, pH 7.4, 3 mM EDTA) or buffer B (0.1 M Acetat 3 mM EDTA, pH 4.0), and solution was filtered through a 0.2 μm filter and incubated at 37° C. Samples were taken at time intervals and analyzed by RP-HPLC at 215 nm and ESI-MS. UV-signals correlating to liberated drug molecule were integrated and plotted against incubation time. In case of identical retention times of prodrug and drug, ratio of mass signals was used to determine release kinetics.
For hydrogel conjugates, compounds were suspended in buffer A and incubated at 37° C. Samples were taken after centrifugation of the suspension and analyzed by RP-HPLC at 215 nm. UV-signals correlating to liberated drug molecule were integrated and plotted against incubation time.
Curve-fitting software was applied to estimate the corresponding halftime of release.

[1] = human, in vivo; cited from earlier work

Row | Compound | half-life (physchem) [h] | Plasma half-life [1] [h]
1 | CCCCCCCCCCCC(=O)NC(CCCCNC(=O)CCOCCOCCOCCOCCOCCOCCOCCOCCOCCOCCOCCOCCNC(=O)CCN1C(=O)CC(SCCNC(=O)CN2CCN(CCNC(=O)[C@@H]3CCCC[C@@H]3C(=O)N3CCN(C4=Nc5ccccc5Oc5ccc(Cl)cc54)CC3)CC2)C1=O)C(N)=O (some centres unmarked) [Compound 5] | 22 | 
2 | Exendin-4: GLP-1 receptor agonist peptide; high potency agonist at the glucagon-like peptide 1-(7-36)-amide receptor |  | 0.433
